Experimental data taken from US20070099268A1, “Chimeric HCN channels” (priority 2005, published 2007).
Each block holds one compound with its values, some of them ahead of it.

What was measured:
[1] = biological target: mouse Cx45 on transfected HeLa cells (mouse) (UniProt P28229)
[2] = biological target: rat Cx40 on transfected HeLa cells (rat) (UniProt P28234)
[3] = biological target: rat Cx43 on transfected HeLa cells (rat) (UniProt P08050)
[4] = biological target: HCN1 (Mus musculus, UniProt O88704); test: Coexpression of HCN1 with MiRP1 or minK in Xenopus oocytes, two-microelectrode voltage clamp; conditions: maximal conductance
[5] = biological target: T1, HCN2 (Mus musculus, UniProt O88703); test: Coexpression of HCN2 with MiRP1 or minK in Xenopus oocytes, two-microelectrode voltage clamp; conditions: maximal conductance
T1 sequence (O88703 1-863): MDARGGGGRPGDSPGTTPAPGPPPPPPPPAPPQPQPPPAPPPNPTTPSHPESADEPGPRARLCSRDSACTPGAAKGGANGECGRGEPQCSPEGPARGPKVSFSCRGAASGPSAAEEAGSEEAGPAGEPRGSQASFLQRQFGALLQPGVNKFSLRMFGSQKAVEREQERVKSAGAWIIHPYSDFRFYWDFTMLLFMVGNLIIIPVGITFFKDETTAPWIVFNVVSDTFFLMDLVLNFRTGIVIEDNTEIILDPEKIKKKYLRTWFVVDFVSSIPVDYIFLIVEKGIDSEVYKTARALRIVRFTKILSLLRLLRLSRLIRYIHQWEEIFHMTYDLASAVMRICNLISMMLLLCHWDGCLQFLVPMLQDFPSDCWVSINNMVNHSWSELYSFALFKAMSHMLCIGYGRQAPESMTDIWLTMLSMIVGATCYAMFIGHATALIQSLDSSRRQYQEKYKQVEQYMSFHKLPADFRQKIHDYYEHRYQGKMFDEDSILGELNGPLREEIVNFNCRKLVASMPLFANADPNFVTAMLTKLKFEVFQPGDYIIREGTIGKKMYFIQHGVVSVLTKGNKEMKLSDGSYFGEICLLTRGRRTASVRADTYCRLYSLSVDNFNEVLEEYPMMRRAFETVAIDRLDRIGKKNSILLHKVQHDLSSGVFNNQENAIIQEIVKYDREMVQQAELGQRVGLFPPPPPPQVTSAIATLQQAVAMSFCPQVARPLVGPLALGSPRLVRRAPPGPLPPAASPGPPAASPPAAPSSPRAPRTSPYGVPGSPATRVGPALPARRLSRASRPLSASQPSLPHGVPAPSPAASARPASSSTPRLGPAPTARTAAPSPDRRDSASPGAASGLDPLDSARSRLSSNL

[6] = tested on: AdHCN2 infected culture; test: Modulation of spontaneous rate by drugs in an AdHCN2 infected culture; type: cell-based, rat; conditions: superfusion with drug; control record of same culture 48, 54 and 96 beats/min respectively
[7] = tested on: expressed HCN2 current in a neonatal ventricular myocyte; test: Effect of threshold concentration of isoproterenol on expressed HCN2 current, two-step voltage protocol; type: cell-based, rat
Source text: The effect of isoproterenol is to shift the activation curve positive without increasing maximal current. This effect can be visualized by a two-step voltage protocol, with the first step to the midpoint of the activation curve and the second step to the maximum curve. FIG. 23 employs this two-step protocol to illustrate that this threshold concentration of isoproterenol shifts the activation curve of over-expressed HCN2 in a neonatal rat ventricle cell.

[8] = tested on: native pacemaker current in sinus node; conditions: cited from earlier work
[9] = tested on: hMSCs loaded with HCN2; conditions: cited from earlier work

HCN1, sequence (O88704 whole entry): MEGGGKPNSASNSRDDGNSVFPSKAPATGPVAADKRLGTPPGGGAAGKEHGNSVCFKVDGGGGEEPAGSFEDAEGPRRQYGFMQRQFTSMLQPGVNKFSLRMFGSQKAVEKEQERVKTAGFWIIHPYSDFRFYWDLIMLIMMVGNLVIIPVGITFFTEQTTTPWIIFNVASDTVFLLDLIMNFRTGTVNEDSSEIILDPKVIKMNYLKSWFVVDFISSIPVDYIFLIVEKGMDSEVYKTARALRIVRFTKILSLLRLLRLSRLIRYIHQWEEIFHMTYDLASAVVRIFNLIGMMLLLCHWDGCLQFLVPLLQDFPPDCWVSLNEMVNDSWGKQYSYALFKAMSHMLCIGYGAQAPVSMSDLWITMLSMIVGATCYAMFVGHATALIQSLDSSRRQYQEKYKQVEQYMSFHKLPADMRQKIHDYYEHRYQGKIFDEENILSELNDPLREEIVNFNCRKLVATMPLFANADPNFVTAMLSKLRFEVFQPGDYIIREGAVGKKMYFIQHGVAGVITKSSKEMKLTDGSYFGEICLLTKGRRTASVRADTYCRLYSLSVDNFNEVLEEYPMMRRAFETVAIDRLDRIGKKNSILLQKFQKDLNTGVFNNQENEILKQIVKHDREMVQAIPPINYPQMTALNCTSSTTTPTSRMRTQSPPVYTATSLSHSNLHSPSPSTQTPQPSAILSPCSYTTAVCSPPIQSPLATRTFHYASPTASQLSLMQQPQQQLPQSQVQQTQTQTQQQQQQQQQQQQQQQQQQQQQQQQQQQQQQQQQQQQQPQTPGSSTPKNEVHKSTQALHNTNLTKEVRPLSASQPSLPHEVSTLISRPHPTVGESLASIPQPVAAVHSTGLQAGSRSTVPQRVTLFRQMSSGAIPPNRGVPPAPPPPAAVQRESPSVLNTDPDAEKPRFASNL

junctional conductance in cell pairs (double voltage clamp) [1]: 11 nS | junctional conductance in cell pairs (double voltage clamp) [2]: 4.6 nS | junctional conductance in cell pairs (double voltage clamp) [3]: 7.9 nS
Compound: human mesenchymal stem cells (cells without a defined receptor)

enhancement of HCN1 conductance on coexpression [4]: does not enhance | enhancement of HCN2 expression on coexpression [5]: does not enhance
Compound: minK: rat minK, the minimal K channel protein

Compound: CC(C)NCC(O)c1ccc(O)c(O)c1 (stereo not drawn) [isoproterenol]
spontaneous rate during drug exposure [6]: 63 beats/min | positive shift of activation curve [7]: approximately 5 mV | threshold concentration on native pacemaker current [8]: approximately 1 nM | effect on expressed current [9]: shift in activation such that increased current flowed at more positive potentials
